Results: doi:10.1101/2020.08.09.242891 (bioRxiv, 2020)

Molecular target: T1, FLAG-PKD1 (protein kinase D1) (UniProt Q15139 1-912)
T1 sequence (looked up): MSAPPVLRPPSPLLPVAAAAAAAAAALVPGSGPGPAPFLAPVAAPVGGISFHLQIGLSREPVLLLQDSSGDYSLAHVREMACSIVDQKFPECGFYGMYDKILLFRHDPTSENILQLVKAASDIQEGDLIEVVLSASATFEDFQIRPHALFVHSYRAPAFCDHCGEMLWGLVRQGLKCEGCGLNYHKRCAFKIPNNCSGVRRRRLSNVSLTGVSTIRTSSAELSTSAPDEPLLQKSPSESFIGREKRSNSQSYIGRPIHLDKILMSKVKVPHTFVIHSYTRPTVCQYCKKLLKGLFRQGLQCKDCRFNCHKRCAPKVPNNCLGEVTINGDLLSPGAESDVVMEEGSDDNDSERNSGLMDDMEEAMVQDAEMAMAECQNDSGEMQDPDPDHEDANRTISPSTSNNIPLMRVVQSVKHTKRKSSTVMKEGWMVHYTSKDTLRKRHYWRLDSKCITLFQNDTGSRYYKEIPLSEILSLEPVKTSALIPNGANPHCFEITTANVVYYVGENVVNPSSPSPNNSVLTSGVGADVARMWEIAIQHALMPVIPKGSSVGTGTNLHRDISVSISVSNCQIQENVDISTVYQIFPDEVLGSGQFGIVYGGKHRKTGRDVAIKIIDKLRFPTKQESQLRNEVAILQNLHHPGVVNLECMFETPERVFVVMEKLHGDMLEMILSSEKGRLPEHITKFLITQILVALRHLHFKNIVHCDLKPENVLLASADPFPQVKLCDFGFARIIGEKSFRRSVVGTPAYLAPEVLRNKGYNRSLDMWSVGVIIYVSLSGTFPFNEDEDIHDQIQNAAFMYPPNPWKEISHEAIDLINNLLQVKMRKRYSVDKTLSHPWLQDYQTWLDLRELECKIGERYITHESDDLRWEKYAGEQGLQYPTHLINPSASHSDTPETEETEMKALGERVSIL
Experiment: pull-down

binding result: binds
B1: GST-CBX8 (natural protein, UniProt Q9HC52 1-389, looked up)
chain: MELSAVGERVFAAEALLKRRIRKGRMEYLVKWKGWSQKYSTWEPEENILDARLLAAFEEREREMELYGPKKRGPKPKTFLLKAQAKAKAKTYEFRSDSARGIRIPYPGRSPQDLASTSRAREGLRNMGLSPPASSTSTSSTCRAEAPRDRDRDRDRDRERDRERERERERERERERERERGTSRVDDKPSSPGDSSKKRGPKPRKELPDPSQRPLGEPSAGLGEYLKGRKLDDTPSGAGKFPAGHSVIQLARRQDSDLVQCGVTSPSSAEATGKLAVDTFPARVIKHRAAFLEAKGQGALDPNGTRVRHGSGPPSSGGGLYRDMGAQGGRPSLIARIPVARILGDPEEESWSPSLTNLEKVVVTDVTSNFLTVTIKESNTDQGFFKEKR
